Assay: soluble on expression in E. coli; label from the status in PepcDB or PDB records

Row | Sequence | soluble on expression in E. coli
1 | MGHHHHHHSHMTSLMDLTLLLARSQPELIEAHTCERIMCCVAQQASEKIDRFRAHAASVFLTLLHFDSPPIPHVPHRGELEKLFPRSDVASVNWSAPSQAFPRITQLLGLPTYRYHVLLGLVVSLGGLTESTIRHSTQSLFEYMKGIQSDPQALGSFSGTLLQIFEDNLLNERVSVPLLKTLDHVLTHGCFDIFTTEEDHPFSVKLLALCKKEIKNSKDIQKLLSGIAVFCEMVQFPGDVRRQALLQLCLLLCHRFPLIRKTTASQVYETLLTYSDVVGADVLDEVVTVLSDTAWDAELAVVREQRNRLCDLLGVPRPQLVPQPGAC | not soluble
2 | MGHHHHHHSHMVGLDIDSRLIHSARQNIRHYLSEELRLPPQTLEGDPGAEGEEGTTTVRKRSCFPASLTASRGPIAAPQVPLDGADTSVFPNNVVFVTGNYVLDRDDLVEAQTPEYDVVLCLSLTKWVHLNWGDEGLKRMFRRIYRHLRPGGILVLEPQPWSSYGKRKTLTETIYKNYYRIQLKPEQFSSYLTSPDVGFSSYELVATPHNTSKGFQRPVYLFHKARSPSH | not soluble
3 | MGHHHHHHSHMVGTQPRFLVKIHQKFYWAIRDDLIIHGGYKRSGLTSSFALVAMGPLGRPWAASFGFFFLAVVSLATPTPGEDDDIPVKIHRLTFVKGLVPDVTGGSSYYVCVYPSRKLFCTPTRWKDLSRFLNSETLNQVCSARTIYSVVPVEMLRIISLPLPPEIKSIVGGSIRSQYVSFPTFISLHPAKLPIWKSFANLKVSMKFRSSQWEVAFSVVSKTDYAITYWAEIPGFLIHESATINLINQPLLALYADLHVDMVMRLTDKFIYCQTYTLQQKNLTDPRTGKRPTSSVLIPSPHVKNCQIRRRNETHFVDTCSSAWDNYTSEAHNISRNSSSRGSNATQLVNITANPCTLPTLWDNWPCYTNYRSSPVPEIVIHENILLEGRAIYIIYHQIGLFDQPRLCVATFWMSKEETLLMQLDYPCEVSVEKKGKKFFIKSVVSMYHAISMVTFIWEYGIEIYDFLE | not soluble
4 | MGHHHHHHSHMVKMEPENKYLPELMAEKDSLDPSFTHAMQLLTAEIEKIQKGDSKKDDEENYLDLFSHKNMKLKERVLIPVKQYPKFNFVGKILGPQGNTIKRLQEETGAKISVLGKGSMRDKAKEEELRKGGDPKYAHLNMDLHVFIEVFGPPCEAYALMAHAMEEVKKFLVPDMMDDICQEQFLELSYLNG | soluble
5 | MGHHHHHHSHTGKTTVAVNLAVFNHIDLFDLDVEEPNDRIFIKGEAEEWPAYRKVPEVRENCNACGVCKDVCQYSAIYVIDKAYPLPELCHSCGACIYLCPEKAMEEVDYQTGKIVRVKSDITLTYGEMRIGEASAVFLIKQVKELMGKNAIIDSPPGASCPMVESVSDADYVILVAEPTPFGLHDLKIAAEVVSDLGLKFGVVVNKHGLPFDGIERYCKEGGVEILGKIPFSKEIAEKYSRGELLHDMKDFFVQLYEG | not soluble
6 | MGHHHHHHSHTRDELRAKALHIPFPVEKIINLPVVDFNEMMSKEQFNEAQLALIRDIRRRGKNKVAAQNCRKRKLENIVELEQDLDHLKDEKEKLLKEKGENDKSLHLLKKQLSTLYLEVFSMLRDEDGKPYSPSEYSLQQTRDGNVFLVPKSKK | soluble
7 | MGHHHHHHSHVFDRPDLGDQAILVSLDFGDADYQESVAECAELVRGSKVEILGMVQGKRQRPDAALFAGKGKVEEIASMVRATGANVVIFNHALSPGQERNLERALQCRVIDRNSLILDIFAQRARSHEGKLQVELAQLSHLSTRLVRGWTHLERQKGGVGLRGPGETQLETDRRLLGIRVKALKDRLAQVQKQRNTQRRSRNRAGVSSVSIVGYTNAGKSTLFNALTKANIYAADQLFATLDTTSRKLFLNHDCSVVLSDTVGFIRDLPHTLVAAFRATLEETVQANLLLHVVDCANETRDAQIDEVNKVLAEIDADGIPQLIVWNKGDLRELPPEIERDEDGVAVAVRVSALKGEGLELLREAIAERVQPFANNHKEPYEHVAE | soluble
8 | MGHRSRSNSRSQSRSRENSRGRSRSASKSPVYHRRERESSRSRSPRARYGGGGGGGGGGGRGRNQQYDRENPQPSKCLGVFNLSSYTTEKDLRDVFGEFGEINKCDLVYDRPSGNSRGFGFIYFNLIEDATAARDKLCNTDLDGHKIRVDFSLTKRGHSPTPGQYMGDRRGGGSSGGGRFGGGGGDRFNDRGSRGGDRYGGDRRGGGGGGGGDRYGGGGGDRYGGDRYGGGGGRRGSPDRRGGFRSGGGGGGYMRSGGGGGGPDRRDHRDNDRNGGGGGHRPYDPSFRRRVESYGSGNSGGGGGRRDRY | not soluble
9 | MGIKQYSQEELKEMALVEIAHELFEEHKKPVPFQELLNEIASLLGVKKEELGDRIAQFYTDLNIDGRFLALSDQTWGLRSWYPYDQLDEETQPTVKAKKKKAKKAVEEDLDLDEFEEIDEDDLDLDEVEEELDLEADDFDEEDLDEDDDDLEIEEDIIDEDDEDYDDEEEEIK | not soluble
10 | MGILSDKDIAYLKDLFGKELKRKVKIVFFKTEDKTRCQYCEITEQVLEELVSVDPKLELEIHDFDSDKEAVEKYQVEMVPATILLPEDGKDYGIRFYGVPSGHEFGTLIQDIITVSEGKPQLSEESIQKLQSLEEPIRISVFVTPTCPYCPRAVLMAHNMAMASDKIIGEMIEANEYWELSEKFGVSSVPHIVVNRDPSKFFVGAYPEKEFINEVLRLAKG | soluble
11 | MGIRLKDLSKLGYRDNVARSLVVDIVGKYCKHDTKEQIAMTLSNILEHPESYKNNEIWSKLAERLSPTVLAKEFVAYDLREDPLMYKTYGGKFIETLAKQQMNLAMRLPVTVGGALMPDAHAGYGLPIGGVLATDNAVIPYAVGVDIGCRMSLTVFDAKADFLKRYSYQIKEALKDFTHFGMDGGLGFEQEHEVLDREEFRLTPLLKDLQGKAVRQLGSSGGGNHFVEFGEIALQADNVLNLPEGSYVALLSHSGSRGLGAAIAKHYSLLAREVCKLPREAQHFAWLSLDSEEGQEYWMSMNLAGDYARACHERIHLNLSKALGLKPVANVNNHHNFAWKEEIAPGRMAIVHRKGATPAQKGQAGLIPGSMATAGYLVCGKGVEESLCSASHGAGRAMSRQKAKESFTQSALKKMLSQADVTLIGGSIEEIPLAYKDIDRVMYTQETLVEVQGRFMPRIVRMNKE | not soluble
12 | MGKEITENIIDVEFKCNHFKMNGYIGNNNIYRSNKNLQHIYINKRFVKSKIIIDAITESYKSIIPIGKHAVCFLNIEVDPSCIDVNIHPNKLEIKFEKEQEVYIELRDFLKVKLIHSNLIGLEHHHHHH | not soluble
13 | MGKIKIGINGFGRIGRLVARVALQSEDVELVAVNDPFITTDYMTYMFKYDTVHGQWKHSDIKIKDSKTLLLGEKPVTVFGIRNPDEIPWAEAGAEYVVESTGVFTDKEKAAAHLKGGAKKVVISAPSKDAPMFVCGVNEDKYTSDIDIVSNASCTTNCLAPLAKVIHDNFGIIEGLMTTVHAITATQKTVDGPSSKDWRGGRAASFNIIPSSTGAAKAVGKVLPDLNGKLTGMSFRVPTVDVSVVDLTVRIEKAASYDAIKSAIKSASEGKLKGIIGYVEEDLVSTDFVGDSRSSIFDAKAGIALNDNFVKLVAWYDNEWGYSNRVIDLIRHMAKTQ | soluble
14 | MGKKSKNSVTTQTQWKRLKIDFVERKIDKDDVFFEEVSDEQLNDKIIVPLFTSSGTFEETIGILIQWQEYLKSRSDRLSEVFLSKVNSYFEHIRITLALPFDESKWAELETLTETDLNKTPIFINNIRTSTVSVILHLENLIKSFHLNVKSAEIFPFDSDSFGLPPINCRKILNPLLWMKAGIEKLIQNNCQCDQPPIVPLITLLDLAPKEGHFQELAIASFFLENTAHKLDYSCSDDEKKFLDQIKMKFGTTKVDKLTMVLPDILMAYSEELVERVMPVSYFIPFELFRMMLLSWQPKVLNLRLRTEACSSIEDAARIEWDDEDVFTSTTLFNCPLFDRCEPVCLGDEEIILNCKLIVDCSGSRLFDPMFNEGNVYTAGRDFLVLFPMQTIILKRIVPLKVGSSVKVQLKKQIDYIVNTFFFNASEHQDRVVNYELTFTNSTDVQMSAVKRCIPQVANGRQIGVNLNVEQETRDLFTDHGNSCPGRHMFASFFDSENQVIVDLKVVLAN | not soluble
15 | MGKNDQYYAVARGKQVGIYRTWNECKTQIDGFQNARFKKFATEAEARKFVADNMSVPGSKPVTPAVSTSSATRKRTHEGTKFTEAKKMKTEEEVIDPEFANAPVVYTDGACSSNGTKNAKAGWGVYWGDDSEDNEFGPVYGAPTNNRGELIAVQKAIEKAIEKRLPKVVIKTDSNLLVQSMNIWIHGWKRKGWKTSTGSEVLNQDVLMKIDNLRQKLKVKFLHVRGHAGIDGNEKADELARKGAQMFIKRS | not soluble
16 | MGKPSGERILQMKIALVMLAAGNSRRFGSNKLLYEIEGKPMYLLTLEKLKKASEKIPESEIIVVTQYEEIVKKAGEMKIPVFINPRPEDGISLSMQIGLMSVRDTDACLFTVSDQPWLEADTVVALTELFENEKKGMACIRWNGKTGNPCIFGQKYYEELMEISGDKGGKKIIKKHPEDVAYLQIRNARELQDADEPDVFTAGNLR | not soluble
17 | MGKQCFVTGRKASTGNNRSHALNSSKRRWNANLQKVRILVDGKPKKVWVSARALKSGKVTRVLEHHHHHH | not soluble
18 | MGKRNLDETMNESTVSEANGDATAPTTEKDEYQALCELVNPIAQPLANRKLAKKVYKLIKKASAGDKTLREGIKDVQKELRRNEKGICILAGNVSPIDVYSHIPGICEEKEIPYVYIPSREQLGLAVGHRRPSILIFVKPSGDFKELYDEVAEALRHLTVEAA | not soluble
19 | MGKSASKQFHNEVLKAHNEYRQKHGVPPLKLCKNLNREAQQYSEALASTRILKHSPESSRGQCGENLAWASYDQTGKEVADRWYSEIKNYNFQQPGFTSGTGHFTAMVWKNTKKMGVGKASASDGSSFVVARYFPAGNVVNEGFFEENVLPPKK | soluble
20 | MGKTNLAPGFRFHPTDVELVRYYLKRKVMGKKFQVDAIAEVDIYKFEPPDLPDKSCLGTGDLKWYFFCPREKKYPKGGKANRSTECGYWKTTGRDRDVSYNDEVTGKIRTLIYHYGKIPRGDRTDWVIHEYRLEDKVLAQKNVPQDTYVLCVLFKKNGLGPRHGSQYGAPFKEEDWSDKEEEYTQNHLVAGPSKETSLAAKASHSYAPKDGLTGVISESCVSDVPPLTATVLPPLTSDVIAYNPFSSSPLLEVPQVSLDGGELNSMLDLFSVDNDDCLLFDDFDYHNEVRHPDGFVNKEAPVFLGDGNFSGMFDLSNDQVVELQDLIQSPTPHPPSPPAQASIPDDSRSNGQTKDD | soluble
21 | MGKVYVFDHPLIQHKLTYIRDKNTGTKEFRELVDEVATLMAFEITRDLPLEEVEIETPVSKARAKVIAGKKLGVIPILRAGIGMVDGILKLIPAAKVGHIGLYRDPQTLKPVEYYVKLPSDVEERDFIIVDPMLATGGSAVAAIDALKKRGAKSIKFMCLIAAPEGVKAVETAHPDVDIYIAALDERLNDHGYIVPGLGDAGDRLFGTK | soluble
22 | MGKYFGTDGVRGEANVELTPELAFKLGRFGGYVLSQHETERPKVFVARDTRISGEMLESALIAGLLSVGIEVYKLGVLATPGVSYLVRTEKASAGVMISASHNPALDNGIKFFGNDGFKLADDQELEIEALLDAPEDTLPRPSAEGLGTLVDYPEGLRKYEKFLVTTGTDLSGMTVALDTANGAASVSARDVFLDLNAEIAVIGEKPNGLNINDGVGSTRPEQLQELVKETGADLGLAFDGDSDRLIAVDETGEIVDGDRIMFIIGKYLSEKGLLAHNTIVTTVMSNLGFHKALDKQGINKAITAVGDRYVVEEMRSSGYNLGGEQSGHVIIMDYNTTGDGQLTAIQLAKVMKETGKSLSELAAEVTIYPQKLVNIRVENSMKERAMEVPAIANIIAKMEDEMAGNGRILVRPSGTEPLLRVMAEAPTDAEVDYYVDTIADVVRTEIGCDN | not soluble
